Data: PMC3257533

Target: paclitaxel-stabilized microtubules
Experiment: co-sedimentation

Kd: 230 nM
B1: MBP-Nsk1 (recombinant maltose-binding protein-Nsk1, wild type) (natural protein)
chain: MAYKLSLSAVEPLLIFPAAPFSTKKEKSTFQNNLISSDVFSSALKPLSPLKSLVADFSTHSNPSKDNQLISPPKINHREFLNEEKESDTQTRYLKQLINICNSPSKNHETSLSPSKSTIDNNERKLDNEIDNYKHDVKYSPYKGQGKTSNPSQGTTKCPGIFEEDNFFSVSPKRRKNLFEKYGKTDLGKPARVPSPKKSLSSTIKSPPSRVKLPTSILSKSPPLKVPNKNRSSTFSPLRTPTSSSKTFVIVDHSTPSPPSIRTKLEAFAPNSTFATQKRLRRLATLESSPALRSTLKSLQSKSSPVKLLKLKEEKAKIKNQLFKSEEEKDPVGKQKLPLESSLSPLDHSSAEKEMQKAPAKNKRRRTGSLETGLYPKESPTPSKKRSKRVLWSLKHIVSPGNREKHSLNSTPESIMKKDTKWPQNLAKNNINSEPNTPTKSNIDTGKAHSARAHKTRKNIQS
